Assay results reported in US9724426B2, “Agents, uses and methods” (AFFINICON APS, priority 2009, dated 2017).
Values joined by “and” are separate entries in the source; they are usually repeats but may differ in a detail not shown here. Equal entries are not always repeated.

Experiments:
Format in all cases: cell-based
[1] = molecular target: T1, CD163 on CD14+ peripheral blood monocytes (Homo sapiens, UniProt Q86VB7); test: Quantitative flow cytometry of monocyte surface CD163 expression with different anti-CD163 clones
T1 construct: endogenous in cells; host or cells: human peripheral blood monocytes, monocyte-derived macrophages, blood dendritic cells
Procedure: Freshly drawn peripheral whole blood samples or PBMC (approx. 3×10^6 cells) were stained with isotype-matched control antibody or a relevant antibody for one hour at 4° C. in the dark. When staining whole blood, erythrocytes were lysed for 15 min with 4° C. cold solution of ammonium chloride. When indirect immunofluoresence staining was required, cells were initially incubated with unconjugated primary CD163 antibody for one hour at 4° C., washed three times with D-PBS, pH 7.4, followed by incubation with goat anti-mouse-conjugated Alexa-Fluor® 488 (1:200 dilution; Molecular Probes, Invitrogen, Carlsbad, Calif., USA) for one hour at 4° C. in the dark. The stained cells were washed twice three D-PBS, pH 7.4, re-suspended in 400 μl FACSflow (Becton Dickinson, San Jose, Calif., USA), and kept on ice until analysis. All samples were analyzed using a FACSCalibur flow cytometer and compensated for spectral overlap using FlowJo for Macintosh software version 8.3 (TreeStar, San Carlos, Calif.). For CD163 density quantitation, flow cytometric estimation of antibodies bound/cell (ABCs) was performed using Quantibrite PE beads (Becton Dickinson, San Jose, Calif., USA) as recommended by the manufacturer. After the cells were stained, as detailed, a set of 4 pre-calibrated fluorescently labeled beads was used for standardization before the samples were acquired. The Quantibrite PE beads were run at the same instrument settings as the assay, and the linear regression obtained using the Quantibrite PE beads was used to convert the FL2 linear fluorescence staining of cell population into the number of (CD163) PE molecules bound per cell (ABC).

[2] = test system: LPS induction of TNF production in human in vitro matured macrophages; test: Dexamethasone treatment of cultivated pro-inflammatory macrophages, soluble TNF by cytometry bead array; settings: without dexamethasone; results not shown
Procedure: Monocytes were resuspended in RMPI 1640 medium (Sigma-Aldrich, Brondby, Denmark) containing 20% fetal calf serum (FCS) supplemented with 100 ng/ml M-CSF (GenScript Corporation, New Jersey, USA) and pencillin/streptomycin (pen/strep) for 7 days. The first 3 days in Tissue Culture Flasks at 37° C. and 5% CO2. The monocytes were then detached from the flask by flushing and scraping. The monocytes were divided into smaller portions and further grown for four days. […] cells per well were grown in 96 well tissue culture plates for TNF CBA use.
Subsequently, the macrophages were activated in RMPI 1640 containing 5% FCS, 1 ug/ml lipopolysaccaride (LPS) (Sigma-Aldrich, Brøondby, Denmark) and 20 ng/ml INF-gamma (Genscript Corporation, New Jersey, USA) for 18 hours making them pro-inflammatory.
The pro-inflammatory macrophages were stimulated with RMPI160, 5% FCS, 1 ug/ml LPS and 20 ng/ml INF-gamma containing either dexamethasone, Ab-dexamethasone or no drug.
To detect the change in soluble TNF-alpha concentration we used the Cytometry Bead Array Kit (BD Biosciences, New Jersey, USA). The media from the in vitro stimulated macrophages (described earlier) grown in 96 well tissue culture plates were analyzed according to the manufacturer's protocol.

[3] = molecular target: T2, CD163 receptor on surface of human macrophages (Homo sapiens, UniProt Q86VB7); test: Binding and uptake of fluorescently labeled CD163 antibodies in monocyte-derived macrophages; settings: 0 min; macrophages stimulated with 200 nM dexamethasone
T2 construct: endogenous in cells; host or cells: human peripheral blood monocytes, monocyte-derived macrophages, blood dendritic cells
Procedure: Monocytes were isolated from PBMC by negative selection using magnetic beads from Dynal (Dynabeads® MyPure™ Monocyte Kit 2; Invitrogen A/S, Taastrup, Denmark) according to instructions provided by the manufacturer. Monocyte preparations were more than 95% (CD14^+) pure determined by flow cytometry. The isolated cells were washed twice with phosphate-buffered saline. Monocyte-derived macrophages (MDMs) were prepared by cell culture of monocytes (approximately 1×10^7 cells) for 4 days in 5% CO2 and 37° C. in RPMI 1640 media (RPMI 1640+25 mM HEPES+I-glutamine) (Invitrogen Corporation, Carlsbad, Calif., USA) with 20% FCS containing 100 ng/ml of M-CSF. MDMs were then detached from the flask by incubation with cell dissociation buffer (Invitrogen A/S, Taastrup, Denmark) for 30 minutes at 40 °C, then flushed, and scraped. […]
MDMs or CHO cells were washed with 4° C. cold D-PBS, pH 7.4, containing 1% BSA in Lab-Tek™ Chamber Slides (Thermo Fisher Scientific, Roskilde, Denmark). […] Fluorescence was visualized using a Zeiss Axiovert 200M microscope (Carl Zeiss GmbH, Jena, Germany) with an ×100 oil-immersion objective. […] Alternatively, immunostained cells were analyzed by confocal immunofluorescence microscopy using a Zeiss LSM-510 confocal microscope (Carl Zeiss GmbH, Jena, Germany). […]

T1 sequence (Q86VB7 42-1156): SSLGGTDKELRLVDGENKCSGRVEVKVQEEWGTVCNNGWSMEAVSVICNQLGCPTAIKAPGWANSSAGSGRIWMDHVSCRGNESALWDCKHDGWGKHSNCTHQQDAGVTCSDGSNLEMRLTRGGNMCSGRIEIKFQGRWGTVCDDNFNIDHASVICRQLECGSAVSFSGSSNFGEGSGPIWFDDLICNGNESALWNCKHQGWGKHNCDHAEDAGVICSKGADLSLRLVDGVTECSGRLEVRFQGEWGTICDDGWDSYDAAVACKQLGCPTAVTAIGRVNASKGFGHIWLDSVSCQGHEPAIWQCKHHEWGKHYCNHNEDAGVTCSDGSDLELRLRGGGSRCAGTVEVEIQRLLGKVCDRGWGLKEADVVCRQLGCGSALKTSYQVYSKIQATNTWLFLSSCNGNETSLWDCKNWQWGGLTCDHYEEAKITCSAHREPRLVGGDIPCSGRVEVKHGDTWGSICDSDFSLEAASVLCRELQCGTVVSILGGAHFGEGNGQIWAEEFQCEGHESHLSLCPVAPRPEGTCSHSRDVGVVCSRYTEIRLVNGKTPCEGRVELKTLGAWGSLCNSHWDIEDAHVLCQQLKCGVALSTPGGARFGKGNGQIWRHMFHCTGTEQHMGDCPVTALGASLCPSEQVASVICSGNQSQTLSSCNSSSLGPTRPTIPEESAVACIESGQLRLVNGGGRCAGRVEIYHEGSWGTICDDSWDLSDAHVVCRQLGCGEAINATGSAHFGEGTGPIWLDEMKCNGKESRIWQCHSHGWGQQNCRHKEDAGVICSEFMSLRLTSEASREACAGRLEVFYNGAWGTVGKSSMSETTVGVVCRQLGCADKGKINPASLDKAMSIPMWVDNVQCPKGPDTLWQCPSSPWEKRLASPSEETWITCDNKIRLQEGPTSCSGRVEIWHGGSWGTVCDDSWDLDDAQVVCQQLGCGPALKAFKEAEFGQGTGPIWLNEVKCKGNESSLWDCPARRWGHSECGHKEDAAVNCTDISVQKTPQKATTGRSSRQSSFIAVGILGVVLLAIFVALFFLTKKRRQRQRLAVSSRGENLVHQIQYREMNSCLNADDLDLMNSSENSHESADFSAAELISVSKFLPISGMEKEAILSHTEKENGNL
T2 sequence (Q86VB7 42-1156): as above

B1: Mac2-158: murine anti-human CD163 mAb binding SRCR domain 1; VH SEQ ID NO:20, VL SEQ ID NO:21; IQ Products (antibody, V domains shown)
VH: DVQLQESGPGLVKPSQSLSLTCTVTGYSITSDYAWNWIRQFPGNKLEWMGYITYSGITNYNPSLKSQISITRDTSKNQFFLQLNSVTTEDTATYYCVSGTYYFDYWGQGTTLTVSS
VL: SVVMTQTPKSLLISIGDRVTITCKASQSVSSDVAWFQQKPGQSPKPLIYYASNRYTGVPDRFTGSGYGTDFTFTISSVQAEDLAVYFCGQDYTSPRTFGGGTKLEIKRA
modifications: Mac2-158 VH sequence; Mac2-158 VL sequence
notes: IQ Products
With B1 the “density of CD163 receptors per monocyte” value ([1]; citrate stabilized whole blood) was 17,726, the “fraction of CD14+ monocytes stained positive for CD163” value (“fraction” below) ([1]; citrate stabilized whole blood) was 83.97% and the “fraction” value ([1]; freshly drawn EDTA stabilized whole blood) was 84.06% and 87.23%. The “density of CD163 receptors per monocyte” value ([1]; heparin stabilized whole blood) was 18,929, the “fraction” value ([1]; heparin stabilized whole blood) was 84.43% and the effect on macrophages [2] was “no effect different from buffer”. The “cell surface staining (immunofluorescence)” value [3] was “pronounced cell surface staining”.
